Assay results from the supplement of paper PMC9112550, “Optimization of the antimicrobial peptide Bac7 by deep mutational scanning” (BMC Biology, 2022).

System: Escherichia coli TOP10
Test: shrunken log2 fold change of peptide-encoding DNA abundance (4.5 h post-induction vs induction); higher = less antimicrobial activity (less host growth inhibition)
Details: time post-induction: 4.5 h; library: site-saturation at positions 5, 18, 19, 20
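Also: peptides expressed intracellularly from a pBAD plasmid library in pooled LB shake-flask culture, induced with 0.3% L-arabinose, DNA abundance read by NGS, three biological replicates, DESeq2 with apeglm shrinkage.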

| Sequence | shrunken log2 fold change |
| --- | --- |
| RRIRVRPPRLPRPRPRPFFFPRP | 0.151 |
| RRIRRRPPRLPRPRPRPKEYPRP | -0.0535 |
| RRIRMRPPRLPRPRPRPTHYPRP | 0.226 |
| RRIRFRPPRLPRPRPRPWRHPRP | 0.0222 |
| RRIRRRPPRLPRPRPRPYDWPRP | -0.0665 |
| RRIRNRPPRLPRPRPRPDTSPRP | -0.0648 |
| RRIRYRPPRLPRPRPRPGQFPRP | -0.0455 |
| RRIRIRPPRLPRPRPRPFQRPRP | -0.0107 |
| RRIRRRPPRLPRPRPRPAITPRP | -0.0525 |
| RRIRHRPPRLPRPRPRPIVHPRP | -0.125 |
| RRIRPRPPRLPRPRPRPSVMPRP | -0.123 |
| RRIRRRPPRLPRPRPRPADTPRP | 0.423 |
| RRIRGRPPRLPRPRPRPSLVPRP | 0.473 |
| RRIRQRPPRLPRPRPRPCDKPRP | 0.244 |
| RRIRVRPPRLPRPRPRPSHCPRP | 0.109 |
| RRIRRRPPRLPRPRPRPNAGPRP | 0.0188 |
| RRIRDRPPRLPRPRPRPVETPRP | 0.222 |
| RRIRPRPPRLPRPRPRPSPWPRP | 0.0349 |
| RRIRVRPPRLPRPRPRPECPPRP | 0.0319 |
| RRIRERPPRLPRPRPRPQQFPRP | -0.0731 |
| RRIRGRPPRLPRPRPRPNHDPRP | -0.185 |
| RRIRNRPPRLPRPRPRPNDHPRP | -0.153 |
| RRIRCRPPRLPRPRPRPMKSPRP | -0.1 |
| RRIRSRPPRLPRPRPRPLPHPRP | 0.277 |
| RRIRQRPPRLPRPRPRPMACPRP | -0.159 |

| Sequence | shrunken log2 fold change |
| --- | --- |
| RRIRHRPPRLPRPRPRPGIYPRP | 0.0151 |
| RRIRVRPPRLPRPRPRPEARPRP | 0.389 |
| RRIRCRPPRLPRPRPRPHFMPRP | -0.774 |
| RRIRLRPPRLPRPRPRPPCFPRP | 0.242 |
| RRIRWRPPRLPRPRPRPNEWPRP | -0.0242 |
| RRIRDRPPRLPRPRPRPESIPRP | -0.0509 |
| RRIRSRPPRLPRPRPRPRSKPRP | 0.0951 |
| RRIRDRPPRLPRPRPRPKTKPRP | -0.0788 |
| RRIRFRPPRLPRPRPRPHEFPRP | -0.0308 |
| RRIRVRPPRLPRPRPRPIIPPRP | -0.36 |
| RRIRMRPPRLPRPRPRPQHTPRP | -0.0951 |
| RRIRDRPPRLPRPRPRPWPRPRP | 0.211 |
| RRIRPRPPRLPRPRPRPLIFPRP | -0.411 |
| RRIRFRPPRLPRPRPRPCSGPRP | -0.427 |
| RRIRKRPPRLPRPRPRPYHYPRP | 0.00414 |
| RRIRRRPPRLPRPRPRPNCSPRP | 0.198 |
| RRIRTRPPRLPRPRPRPYKKPRP | -0.317 |
| RRIRFRPPRLPRPRPRPYKRPRP | -0.827 |
| RRIRERPPRLPRPRPRPAWKPRP | -0.0447 |
| RRIRFRPPRLPRPRPRPCMYPRP | -0.418 |
| RRIRSRPPRLPRPRPRPSDQPRP | -0.127 |
| RRIRIRPPRLPRPRPRPSTDPRP | -0.247 |
| RRIRIRPPRLPRPRPRPPGAPRP | 0.431 |
| RRIRHRPPRLPRPRPRPNPYPRP | -0.161 |
| RRIRRRPPRLPRPRPRPCWFPRP | 0.225 |

| Sequence | shrunken log2 fold change |
| --- | --- |
| RRIRWRPPRLPRPRPRPHVKPRP | -0.439 |
| RRIRRRPPRLPRPRPRPLHGPRP | 0.233 |
| RRIRARPPRLPRPRPRPAFVPRP | 0.315 |
| RRIRQRPPRLPRPRPRPKYFPRP | 0.0276 |
| RRIRSRPPRLPRPRPRPRKLPRP | 0.316 |
| RRIRHRPPRLPRPRPRPYAAPRP | -0.519 |
| RRIRIRPPRLPRPRPRPQIAPRP | -0.0185 |
| RRIRQRPPRLPRPRPRPNVRPRP | 0.0221 |
| RRIRWRPPRLPRPRPRPVRDPRP | 0.687 |
| RRIRARPPRLPRPRPRPQEWPRP | 0.00318 |
| RRIRARPPRLPRPRPRPSKCPRP | -0.0295 |
| RRIRSRPPRLPRPRPRPLWEPRP | -0.0343 |
| RRIRMRPPRLPRPRPRPDVSPRP | 2.14 |
| RRIRLRPPRLPRPRPRPFRVPRP | 0.128 |
| RRIRFRPPRLPRPRPRPSNEPRP | -0.378 |
| RRIRWRPPRLPRPRPRPHLLPRP | -0.66 |
| RRIRQRPPRLPRPRPRPMGTPRP | -0.00257 |
| RRIRDRPPRLPRPRPRPLFHPRP | -0.152 |
| RRIRHRPPRLPRPRPRPYQRPRP | 0.0916 |
| RRIRLRPPRLPRPRPRPHIVPRP | -0.105 |
| RRIRKRPPRLPRPRPRPNRPPRP | 0.0563 |
| RRIRIRPPRLPRPRPRPTKCPRP | -0.696 |
| RRIRYRPPRLPRPRPRPWQTPRP | -0.0202 |
| RRIRRRPPRLPRPRPRPCITPRP | -0.846 |
| RRIRWRPPRLPRPRPRPQWGPRP | 0.293 |

| Sequence | shrunken log2 fold change |
| --- | --- |
| RRIRCRPPRLPRPRPRPYDNPRP | -0.498 |
| RRIRFRPPRLPRPRPRPYSYPRP | -0.268 |
| RRIRYRPPRLPRPRPRPDVKPRP | -0.294 |
| RRIRLRPPRLPRPRPRPGNIPRP | -0.0276 |
| RRIRVRPPRLPRPRPRPRYGPRP | -0.392 |
| RRIRFRPPRLPRPRPRPMKDPRP | -0.47 |
| RRIRPRPPRLPRPRPRPAKVPRP | 0.045 |
| RRIRPRPPRLPRPRPRPWDLPRP | -0.0362 |
| RRIRPRPPRLPRPRPRPDGCPRP | -0.228 |
| RRIRLRPPRLPRPRPRPYVNPRP | -0.23 |
| RRIRVRPPRLPRPRPRPPREPRP | 0.267 |
| RRIRWRPPRLPRPRPRPAGTPRP | 0.349 |
| RRIRDRPPRLPRPRPRPVQPPRP | 0.196 |
| RRIRIRPPRLPRPRPRPCTSPRP | -0.438 |
| RRIRQRPPRLPRPRPRPLYGPRP | 0.0686 |
| RRIRGRPPRLPRPRPRPRTQPRP | 0.826 |
| RRIRLRPPRLPRPRPRPGANPRP | -0.146 |
| RRIRVRPPRLPRPRPRPFFRPRP | 0.0448 |
| RRIRFRPPRLPRPRPRPWTYPRP | -0.0132 |
| RRIRYRPPRLPRPRPRPATKPRP | 0.171 |
| RRIRARPPRLPRPRPRPWLTPRP | 0.0459 |
| RRIRVRPPRLPRPRPRPHDWPRP | 0.00123 |
| RRIRSRPPRLPRPRPRPFMQPRP | -0.638 |
| RRIRHRPPRLPRPRPRPAVYPRP | -0.0534 |
| RRIRPRPPRLPRPRPRPIQHPRP | -0.053 |

| Sequence | shrunken log2 fold change |
| --- | --- |
| RRIRDRPPRLPRPRPRPSARPRP | 0.465 |
| RRIRVRPPRLPRPRPRPHRVPRP | 0.133 |
| RRIRSRPPRLPRPRPRPLKEPRP | 0.176 |
| RRIRQRPPRLPRPRPRPYDCPRP | -0.195 |
| RRIRGRPPRLPRPRPRPFQQPRP | -0.0372 |
| RRIRTRPPRLPRPRPRPDIHPRP | -0.357 |
| RRIRLRPPRLPRPRPRPYWMPRP | -0.257 |
| RRIRRRPPRLPRPRPRPRKTPRP | 0.615 |
| RRIRARPPRLPRPRPRPLDFPRP | 0.173 |
| RRIRSRPPRLPRPRPRPWELPRP | 0.637 |
| RRIRGRPPRLPRPRPRPNRPPRP | -0.211 |
| RRIRERPPRLPRPRPRPGFQPRP | -0.104 |
| RRIRNRPPRLPRPRPRPIKPPRP | -0.00904 |
| RRIRGRPPRLPRPRPRPNNCPRP | 0.101 |
| RRIRVRPPRLPRPRPRPEKLPRP | 0.0465 |
| RRIRPRPPRLPRPRPRPWIHPRP | -0.44 |
| RRIRNRPPRLPRPRPRPQCQPRP | -0.0453 |
| RRIRIRPPRLPRPRPRPSVMPRP | -0.286 |
| RRIRWRPPRLPRPRPRPYIYPRP | -0.541 |
| RRIRPRPPRLPRPRPRPCCKPRP | -0.247 |
| RRIRIRPPRLPRPRPRPQFDPRP | -0.505 |
| RRIRLRPPRLPRPRPRPLCTPRP | 0.0663 |
| RRIRHRPPRLPRPRPRPQPEPRP | -0.0374 |
| RRIRHRPPRLPRPRPRPELWPRP | 0.376 |
| RRIRDRPPRLPRPRPRPNTNPRP | -0.448 |

| Sequence | shrunken log2 fold change |
| --- | --- |
| RRIRRRPPRLPRPRPRPFCQPRP | -0.252 |
| RRIRERPPRLPRPRPRPIQNPRP | 0.0753 |
| RRIRHRPPRLPRPRPRPGTLPRP | -0.259 |
| RRIRIRPPRLPRPRPRPKVCPRP | -0.028 |
| RRIRHRPPRLPRPRPRPHFRPRP | 0.00253 |
| RRIRWRPPRLPRPRPRPRNEPRP | 1.32 |
| RRIRLRPPRLPRPRPRPPDTPRP | 0.257 |
| RRIRPRPPRLPRPRPRPPFGPRP | 0.432 |
| RRIRWRPPRLPRPRPRPDDRPRP | 0.171 |
| RRIRKRPPRLPRPRPRPIHEPRP | -0.0401 |
| RRIRKRPPRLPRPRPRPDIHPRP | 0.167 |
| RRIRVRPPRLPRPRPRPSHWPRP | 0.182 |
| RRIRYRPPRLPRPRPRPVYNPRP | -0.394 |
| RRIRWRPPRLPRPRPRPWGHPRP | -0.404 |
| RRIRFRPPRLPRPRPRPEGTPRP | 0.055 |
| RRIRIRPPRLPRPRPRPTTRPRP | -0.0487 |
| RRIRFRPPRLPRPRPRPWDPPRP | -0.78 |
| RRIRMRPPRLPRPRPRPKPSPRP | 1.4 |
| RRIRDRPPRLPRPRPRPLYSPRP | -0.411 |
| RRIRTRPPRLPRPRPRPHVHPRP | -0.511 |
| RRIRMRPPRLPRPRPRPFMLPRP | -0.213 |
| RRIRMRPPRLPRPRPRPWDCPRP | 0.00902 |
| RRIRTRPPRLPRPRPRPKYEPRP | -0.144 |
| RRIRVRPPRLPRPRPRPAQTPRP | 0.442 |
| RRIRARPPRLPRPRPRPSWPPRP | 0.164 |
